Earlier results in PMC5620257.
Read-outs that look alike come from different tables or passages of the source.

Columns and labels:
PD1 (Homo sapiens) [1] = biological target: PD1 (Homo sapiens) (UniProt Q15116)
PD1 (Homo sapiens) [2] = biological target: PD1 (Homo sapiens) (UniProt Q15116); remark: listed apart in the source

Sequence of UniProt Q15116 (Q15116 25-170): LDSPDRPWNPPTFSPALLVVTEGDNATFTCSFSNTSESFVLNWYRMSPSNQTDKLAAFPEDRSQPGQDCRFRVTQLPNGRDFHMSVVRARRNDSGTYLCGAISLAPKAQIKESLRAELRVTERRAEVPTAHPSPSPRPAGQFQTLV

## PD-L1 (from UniProt Q9NZQ7)
PD1 (Homo sapiens) [1]
  Kd: 26.6 µM
PD1 (Homo sapiens) [2]
  Kd: 0.77 µM
